Test results published in article PMC13541299.
Values joined by “and” are separate entries in the source; they are usually repeats but may differ in a detail not shown here. Identical values can stand only once.

Molecular target: biotinylated polymerization-blocked yeast αβ-tubulin, LR1 (β: T175R, V179R) (S. cerevisiae) (UniProt P09733)
Assay: BLI; biotinylated polymerization-blocked tubulin immobilised on Streptavidin (SA) biosensors (OctetR8), dipped into TOG2 at 2.3 to 200 nM; 100 mM PIPES pH 6.9, 10 mM NaCl, 1 mM MgCl2, 1 mM EGTA, 1 mM GTP, 0.1% BSA, 0.005% Triton X-100; association 300 s, dissociation 300 s; 1:1 model; steady-state amplitudes and global kinetic fit

B1: Stu2-TOG2 (318–560) (domain or fragment)
chain: MLPEETILDKLPKDFQERITSSKWKDRVEALEEFWDSVLSQTKKLKSTSQNYSNLLGIYGHIIQKDANIQAVALAAQSVELICDKLKTPGFSKDYVSLVFTPLLDRTKEKKPSVIEAIRKALLTICKYYDPLASSGRNEDMLKDILEHMKHKTPQIRMECTQLFNASMKEEKDGYSTLQRYLKDEVVPIVIQIVNDTQPAIRTIGFESFAILIKIFGMNTFVKTLEHLDNLKRKKIEETVKTL
In the case of B1, the Kd is reported as 8.9 nM and 9.6 nM, the koff is reported as 0.03 s⁻¹ and the kon is reported as 3.2e+06 M⁻¹ s⁻¹.
